This is an account of results in the supplement of paper PMC9170038.

In this data set the test system is MS2 coat protein. Kind of data set: apparent KD of MS2 coat protein; designed switch direction (-1 OFF switch, 1 ON switch): -1; higher = weaker reporter binding. The method in brief: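 SNAP-549-labelled MS2 coat protein was titrated, doubling from 0.7 or 1.5 nM to 3 µM, over designed RNA switches transcribed on Illumina chips by stalled E. coli RNA polymerase. Runs were done without input, with 200 uM small-molecule ligand, or with an oligonucleotide input. Apparent KD is the per-design median over clusters of curve-fitted normalised fluorescence.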

The mark [1] stands for this setting: input ligand: microRNA oligo, concentration not stated.
Setting [2] is: Eterna round: R95, input ligand: FMN 200 uM.
Where [3] appears, read: Eterna round: R95, input ligand: microRNA oligo, concentration not stated.
The mark [4] stands for this setting: Eterna round: R95, input ligand: none.

In the case of “UUUAAUUUAAUUAAGAUCACAUGAGGAUCACCCAUGUAAUUAUAGGAUAUCAGCUCGAUUAGAGCUGAGAAGGAUAAUUACAUA [ExNG3/5-A1] (Eterna round: R96, puzzle: Exclusion NG 3)”, the “apparent KD of MS2 coat protein” value (input ligand: FMN 200 uM) was 105 nM, the “apparent KD of MS2 coat protein” value under setting [1] stood at 75.1 nM and the “apparent KD of MS2 coat protein” value (input ligand: none) came to 58.1 nM.

For the sequence “GUGUGCAGACGGAGAUCCUACAUGAGGAUCACCCAUGUCUCACUAGCUUUUUGCUCGUCUUAUCCUCCUCUGUUCUC [Elimod 26 - Jieux - Sensor, turn-off variant 1] (Eterna round: R97, puzzle: Sensor, turn-off variant 1)”, the “apparent KD of MS2 coat protein” value by setting is: (input ligand: FMN 200 uM) 295 nM; (input ligand: none) 497 nM.

For “AUGGGUCCUCACGGAGCUACAUGAGGAUCACCCAUGUGGAUUGAGGAUAUCGACAGCCGACGGCUCGAGAAGGCAGUUUACUGU [Ex NG3 #96] (Eterna round: R96, puzzle: Exclusion NG 3)”, the “apparent KD of MS2 coat protein” value turned out to be 35 nM (input ligand: FMN 200 uM), 23.2 nM under setting [1] and 26.4 nM (input ligand: none).

Regarding “AAUAAUAAGGAGGAUAUCGUAUGCGAAAGCAUACGAGAAGGCCUAACAUGAGGAUCACCCAUGUUCCUCAAUAA [Mat - Exclusion 6 - Eli Mod - D55] (puzzle: Exclusion 6)”, the “apparent KD of MS2 coat protein” value reads like this: under setting [2], 659 nM; under setting [3], 254 nM; under setting [4], 259 nM.

For “AUUUAGCAAGCCUGAUCCUACAUGAGGAUCACCCAUGUAGUUCGUCUUAUUUGAAGACAACACAAAAGUGUUGUCUU [Omei Mir OFFv1 B7] (Eterna round: R97, puzzle: Sensor, turn-off variant 1)”, the “apparent KD of MS2 coat protein” value was determined as 18.3 nM (input ligand: FMN 200 uM) and 18.5 nM (input ligand: none).

“GUACACGGCUAGGAUAUCAUUCCUUGCGACCCUUGAGAAGGAGCCACAUGAGGAUCACCCAUGUCAUAUGCAGA [Eternabot (Original) Solution 38] (Eterna round: R97, puzzle: Exclusion 6)”: the “apparent KD of MS2 coat protein” value is 37.5 nM (input ligand: FMN 200 uM) and 33.2 nM (input ligand: none).

Turning to “GUGUAGUUAGGAUAUGCUGGAAUCUAGCGAAGCUAGGUUCCACAUGAGGAUCACCCAUGUAGAAGGGACUACAC [Dot plot directed A v10] (puzzle: Exclusion 2)”, the “apparent KD of MS2 coat protein” value under setting [3] was 168 nM.

Turning to “GAUCCUUUGACGGACGUCUCGAAACAUGAGGAUCACCCAUGUGAGGAUAUCUCCGAGAGGUCGGCAGAGAAGGCACAUGAACAA [MOD3 Eternabot solution 19 score 84.66] (Eterna round: R96, puzzle: Exclusion NG 3)”, the “apparent KD of MS2 coat protein” value came to 123 nM (input ligand: FMN 200 uM), 16.5 nM under setting [1] and 19.8 nM (input ligand: none).

Regarding “AAUAACAGAGGAUAUACUAUUUUAUGUAUUUAUUAUUUUGAACAUGAGGAUCACCCAUGUAGAAGGCUGAUUAA [JMF 47] (puzzle: Exclusion 2)”, under setting [3], the “apparent KD of MS2 coat protein” value came to 28.7 nM.

Take “AAGUUCAGAGGAUAUGCCCAGCUCGACAUGAGGAUCACCCAUGUAUCCACAGAACGUACGGCAGAAGGCUGCAAUA [Eternabot (Original) Solution 9] (Eterna round: R97, puzzle: Exclusion 5)”: the “apparent KD of MS2 coat protein” value (input ligand: FMN 200 uM) amounted to 69.4 nM and the “apparent KD of MS2 coat protein” value (input ligand: none) was determined as 86 nM.

For the sequence “CCAGCGUGUGUGAGGAUAUGCUGGUCCUUGGAUCAGCAGAAGGCACAUGAGGAUCACCCAUGUGAGUACGUUGG [JL bmx4 3.34] (puzzle: Brourd's mod of Exclusion 4)”, the “apparent KD of MS2 coat protein” value under setting [3] worked out at 15 nM.

For “CAAUGAGGAGUGAGGAUAUCGUGUUCGAAAGAACGUGAGAAGGCACAUGAGGAUCACCCAUGUGAUCCUCAUUG [Omei Ex4B A24] (Eterna round: R97, puzzle: Brourd's mod of Exclusion 4)”, the “apparent KD of MS2 coat protein” value reads like this: (input ligand: FMN 200 uM) 98.2 nM; (input ligand: none) 53.3 nM.

As to “UUAUUAGCAGGAUAUAUCCGGGAUCACAUGAGGAUCACCCAUGUGACCGCUUGAGAUUCUAUAGAAGGGCUUUAUU [Mod of ViennaUCT 32 - Jieux - Exclusion 5] (Eterna round: R97, puzzle: Exclusion 5)”, the “apparent KD of MS2 coat protein” value was determined as 19.6 nM (input ligand: FMN 200 uM) and 18.6 nM (input ligand: none).

For the sequence “AGAUGGCGAGGAUAUACAUGAGGAUCACCCAUGUGAGAUAAAAUAGUGAGGAAGAAAAGUAGAAGGCGCUGUCA [Mat - Exclusion 3 - Mod of Salish D15] (puzzle: Exclusion 3)”, the “apparent KD of MS2 coat protein” value by setting is: under setting [2], 268 nM; under setting [3], 58.1 nM; under setting [4], 73 nM.

As for “AUGAGCAGACGGAGAUCCAACAUGAGGAUCACCCAUGUCUCAUAAGCUUUUUGCUCAUCUUAUUGUACCUUGGUGCU [Mat - Sensor v3 - turn-off var 1 - JL Mod - D19] (puzzle: Sensor v3, turn-off variant 1)”, the “apparent KD of MS2 coat protein” value worked out at 191 nM under setting [2], 11.5 nM under setting [3] and 251 nM under setting [4].

Consider “CUAAACGCAGGAUAUACAUGAGGAUCACCCAUGUUUGGCCAGUAAACAAGUCGUCUUAGUAGAAGGGCGUUUAG [Eternabot (Original) Solution 42] (Eterna round: R97, puzzle: Exclusion 3)”, for which the “apparent KD of MS2 coat protein” value by setting is: (input ligand: FMN 200 uM) 544 nM; (input ligand: none) 40.1 nM.

With “GGAUCGAGUGUGAGGAUAUGCUGGUCCUUGGAUCAGCAGAAGGCACAUGAGGAUCACCCAUGUGGAGACGGUCC [JL bmx4 3.17] (puzzle: Brourd's mod of Exclusion 4)”, the “apparent KD of MS2 coat protein” value runs as follows: under setting [2], 298 nM; under setting [3], 92.4 nM; under setting [4], 102 nM.

As for “GCAGCGUAUGUAGGAUAUCGGUCAGUUUCUGAUCGAGAAGGACAUGAGGAUCACCCAUGUAAAUUACCGUCUUUGACGGGCUGC [JL ENG1 3.68] (Eterna round: R96, puzzle: Exclusion NG 1)”, the “apparent KD of MS2 coat protein” value reads like this: (input ligand: FMN 200 uM) 20.5 nM; under setting [1], 14.1 nM; (input ligand: none) 18.1 nM.

Turning to “GGUUGACAUGAGGAUCACCCAUGUGAGGAUAUCGGCUGGUACGUGUUGGCUGGCAUCUCGAGAAGGCACAUAGG [Exclusion 1 V59] (puzzle: Exclusion 1)”, the “apparent KD of MS2 coat protein” value under setting [3] amounted to 155 nM.

On to “UUUGCAAGCUUUAGAUCCCACAUGAGGAUCACCCAUGUUGCUGCCGUGAGGUAGCUUUUAACUAAUGCUCGUCUUAU [JL TOV1 3.45] (Eterna round: R97, puzzle: Sensor, turn-off variant 1)”, for which the “apparent KD of MS2 coat protein” value was determined as 88.2 nM (input ligand: FMN 200 uM) and 163 nM (input ligand: none).

“AAUAAGCUAGGAUAUACAUGAGGAUCACCCAUGUAUGACGAUACAGAAUCUGGCCCGAGUAGAAGGAGCAAACU [EX3 B.7] (Eterna round: R97, puzzle: Exclusion 3)”: the “apparent KD of MS2 coat protein” value reads like this: (input ligand: FMN 200 uM) 23.2 nM; (input ligand: none) 17.4 nM.

As to “CAUACUCAAGUCAGGAUAUGCAGUCGAAUACGGGUGUAGAAGGGACAUGAGGAUCACCCAUGUAGAGAGUAAAG [EX-4 Malc #21] (puzzle: Brourd's mod of Exclusion 4)”, the “apparent KD of MS2 coat protein” value by setting is: under setting [2], 99.8 nM; under setting [3], 36.8 nM; under setting [4], 51.1 nM.

With “CUAGAUCUUCGGAUCUAGUACAUGAGGAUCACCCAUGUGACGAGUAUAUCCUCAAACAAGCUUUUUGCUCGUCUUAU [Sensor v3 - Turn-off variant 1 - 21] (puzzle: Sensor v3, turn-off variant 1)”, the “apparent KD of MS2 coat protein” value reads like this: under setting [2], 243 nM; under setting [3], 237 nM; under setting [4], 172 nM.

On to “GAUAGAGAGCAGGAUAUCUUGGGUAAGUGUUGUAGAGAAGGGCUCACAUGAGGAUCACCCAUGUGGUCCAAGAU [JL Dibiri mod 07] (puzzle: Exclusion 6)”, for which the “apparent KD of MS2 coat protein” value is, setting by setting: under setting [2], 35.2 nM; under setting [3], 16.9 nM; under setting [4], 17.2 nM.

As to “AAGAGUGCAGGAUAUACUUGUUAGGACGGUUGGAUGAAUGGACAUGAGGAUCACCCAUGUAGAAGGGCAGAGAG [JR_Exclu2_Sub051] (puzzle: Exclusion 2)”, the “apparent KD of MS2 coat protein” value runs as follows: under setting [2], 33.9 nM; under setting [3], 30.2 nM; under setting [4], 41.3 nM.

“AUACCACGAGGAUAUCGUCUAUUUUACAUGAGGAUCACCCAUGUUAUCUUUGUAAUGUUUCGAGAAGGCGUGUUUU [JR_E5_Sub080] (puzzle: Exclusion 5)”: the “apparent KD of MS2 coat protein” value under setting [3] came to 31.7 nM.

Take “CACAUCAAAGGAUAUCUGGACCAAAACAUGAGGAUCACCCAUGUAUGAACAUGGCUCGACGGAGAAGGUUGGCUUC [Eternabot (L1) Solution 51] (Eterna round: R97, puzzle: Exclusion 5)”: the “apparent KD of MS2 coat protein” value was determined as 86.2 nM (input ligand: FMN 200 uM) and 79.3 nM (input ligand: none).

“CCUCUACAUGAGGAUCACCCAUGUGAGGAUAUCAGUGCAAAAGGCACGUAAUAAAUCGUGAGAAGGCACAUGGG [EX1 A.15] (Eterna round: R97, puzzle: Exclusion 1)”: the “apparent KD of MS2 coat protein” value (input ligand: FMN 200 uM) is 24 nM and the “apparent KD of MS2 coat protein” value (input ligand: none) was 112 nM.

Regarding “GUUAAACAUGAGGAUCACCCAUGUAAGGAUAUGCUGCGGUCGCGAUGAAGUGACUGCAGCAGAAGGUACAAUUG [Mat - Mod of JL D52] (puzzle: Exclusion 1)”, the “apparent KD of MS2 coat protein” value under setting [3] came to 88.8 nM.

Consider “UAAUAAAGUGUGAGGAUAUGCUGGUCCUUGGAUCAGCAGAAGGCACAUGAGGAUCACCCAUGUAAUAUAUAUAU [Mat - Exclusion 4 - JL Mod - D54] (puzzle: Brourd's mod of Exclusion 4)”, for which the “apparent KD of MS2 coat protein” value under setting [3] was determined as 62.4 nM.

Take “UCAGGUGCAGGAUAUACAUGAGGAUCACCCAUGUAGAUCAACCAGCGAUAGCUGGAAUGUAGAAGGGCACCUGA [E3/5-D2] (Eterna round: R97, puzzle: Exclusion 3)”: the “apparent KD of MS2 coat protein” value was 100 nM (input ligand: FMN 200 uM) and 19.7 nM (input ligand: none).
